According to patent publication US20060153775A1:
Positions of bridges follow the written chain, without caps; N, C: chain ends. Non-standard residues stand in square brackets, D forms with d. No end group written: not given here. AEEA = NCCOCCOCC(=O)O

What was measured:
VEGF receptors on HUVECs = experiment: competition with 125I-VEGF for binding to HUVECs
[1] = biological target: binding target for TKPPR on HAEC (human aortic endothelial cells); experiment: competition of 1% composition bubble binding to HAEC
[2] = biological target: binding target for TKPPR on HAEC (human aortic endothelial cells); experiment: competition of 5% composition bubble binding to HAEC
[3] = biological target: binding target for TKPPR on HAEC (human aortic endothelial cells); experiment: competition of 1% D47 bubble binding to HAEC; TKPPR 5 µM
[4] = biological target: binding target for TKPPR on HAEC (human aortic endothelial cells); experiment: competition of 2% D47 bubble binding to HAEC; TKPPR 25 µM
[5] = biological target: binding target for TKPPR on HAEC (human aortic endothelial cells); experiment: competition of 1% D47 bubble binding to HAEC; TKPPR 10 µM
[6] = biological target: binding target for TKPPR on HAEC (human aortic endothelial cells); experiment: competition of 1% D47 bubble binding to HAEC; TKPPR 25 µM
[7] = biological target: binding target for TKPPR on HAEC (human aortic endothelial cells); experiment: competition of 1% D47 bubble binding to HAEC; TKPPR 50 µM
[8] = biological target: binding target for TKPPR on HAEC (human aortic endothelial cells); experiment: competition of 1% D56 bubble binding to HAEC; TKPPR 10 µM
[9] = biological target: binding target for TKPPR on HAEC (human aortic endothelial cells); experiment: competition of 1% D56 bubble binding to HAEC; TKPPR 25 µM
[10] = biological target: binding target for TKPPR on HAEC (human aortic endothelial cells); experiment: competition of 1% D56 bubble binding to HAEC; TKPPR 50 µM
[11] = biological target: binding target for TKPPR on HAEC (human aortic endothelial cells); experiment: competition of 1% D47 bubble binding to HAEC; TKPPR 100 µM
[12] = biological target: binding target for TKPPR on HAEC (human aortic endothelial cells); experiment: competition of 1% D47 bubble binding to HAEC; TKPPR 2.5 µM
[13] = biological target: binding target for TKPPR on HAEC (human aortic endothelial cells); experiment: competition of 1% D56 bubble binding to HAEC; TKPPR 2.5 µM
[14] = biological target: binding target for TKPPR on HAEC (human aortic endothelial cells); experiment: competition of TKPPR-bead binding to HAEC; free TKPPR 10 µM
[15] = biological target: binding target for TKPPR on HAEC (human aortic endothelial cells); experiment: competition of TKPPR-bead binding to HAEC; free TKPPR 25 µM
[16] = biological target: binding target for TKPPR on HAEC (human aortic endothelial cells); experiment: competition of TKPPR-bead binding to HAEC; free TKPPR 50 µM
[17] = biological target: binding target for TKPPR on HAEC (human aortic endothelial cells); experiment: competition of TKPPR-bead binding to HAEC; free TKPPR 100 µM
[18] = biological target: binding target for TKPPR on HAEC (human aortic endothelial cells); experiment: competition of TKPPR-bead binding to HAEC; free TKPPR 200 µM
[19] = biological target: binding target for TKPPR on HAEC (human aortic endothelial cells); experiment: competition of TKPPR-bead binding to HAEC; free TKPPR 500 µM
[20] = biological target: binding target for TKPPR on HAEC (human aortic endothelial cells); experiment: competition of 1% D47 bubble binding to HAEC; free TKPPR 10 µM
[21] = biological target: binding target for TKPPR on HAEC (human aortic endothelial cells); experiment: competition of 1% D47 bubble binding to HAEC; free TKPPR 50 µM
[22] = biological target: binding target for TKPPR on HAEC (human aortic endothelial cells); experiment: competition of 5% D47 bubble binding to HAEC; free TKPPR 10 µM
[23] = biological target: binding target for TKPPR on HAEC (human aortic endothelial cells); experiment: competition of 5% D47 bubble binding to HAEC; free TKPPR 50 µM
[24] = biological target: binding target for TKPPR on HAEC (human aortic endothelial cells); experiment: competition of 1% D47 bubble binding to HAEC; free TKPPR 100 µM
[25] = biological target: binding target for TKPPR on HAEC (human aortic endothelial cells); experiment: competition of 1% D47 bubble binding to HAEC; free TKPPR 200 µM
[26] = biological target: binding target for TKPPR on HAEC (human aortic endothelial cells); experiment: competition of 10% D47 bubble binding to HAEC; free TKPPR 10 µM
[27] = biological target: binding target for TKPPR on HAEC (human aortic endothelial cells); experiment: competition of 10% D47 bubble binding to HAEC; free TKPPR 50 µM
[28] = biological target: binding target for TKPPR on HAEC (human aortic endothelial cells); experiment: competition of 5% D47 bubble binding to HAEC; free TKPPR 100 µM
[29] = biological target: binding target for TKPPR on HAEC (human aortic endothelial cells); experiment: competition of 5% D47 bubble binding to HAEC; free TKPPR 200 µM
[30] = biological target: binding target for TKPPR on HAEC (human aortic endothelial cells); experiment: competition of 10% D47 bubble binding to HAEC; free TKPPR 100 µM
[31] = biological target: binding target for TKPPR on HAEC (human aortic endothelial cells); experiment: competition of 10% D47 bubble binding to HAEC; free TKPPR 200 µM
[32] = biological target: binding target for TKPPR on HAEC (human aortic endothelial cells); experiment: competition of 1% composition bubble binding to HAEC; free TKPPR 5 µM
[33] = biological target: binding target for TKPPR on HAEC (human aortic endothelial cells); experiment: competition of 1% composition bubble binding to HAEC; free TKPPR 10 µM
[34] = biological target: binding target for TKPPR on HAEC (human aortic endothelial cells); experiment: competition of 1% composition bubble binding to HAEC; free TKPPR 25 µM
[35] = biological target: binding target for TKPPR on HAEC (human aortic endothelial cells); experiment: competition of 1% composition bubble binding to HAEC; free TKPPR 50 µM
[36] = biological target: binding target for TKPPR on HAEC (human aortic endothelial cells); experiment: competition of 1% composition bubble binding to HAEC; free TKPPR 100 µM
[37] = biological target: binding target for TKPPR on HAEC (human aortic endothelial cells); experiment: competition of 5% composition bubble binding to HAEC; free TKPPR 100 µM
[38] = biological target: binding target for TKPPR on RAEC (rabbit aortic endothelial cells); experiment: competition of 5% composition bubble binding to RAEC; free TKPPR 100 µM
[39] = biological target: binding target for TKPPR on HAEC (human aortic endothelial cells); experiment: competition of 2% D47 bubble binding to HAEC; D54 50 µM
[40] = biological target: binding target for TKPPR on HAEC (human aortic endothelial cells); experiment: competition of 2% D47 bubble binding to HAEC; D54 100 µM
[41] = biological target: binding target for TKPPR on HAEC (human aortic endothelial cells); experiment: competition of 2% D47 bubble binding to HAEC; D54 200 µM
[42] = biological target: binding target for TKPPR on HAEC (human aortic endothelial cells); experiment: competition of 2% D47 bubble binding to HAEC; D55 50 µM
[43] = biological target: binding target for TKPPR on HAEC (human aortic endothelial cells); experiment: competition of 2% D47 bubble binding to HAEC; D55 100 µM
[44] = biological target: binding target for TKPPR on HAEC (human aortic endothelial cells); experiment: competition of 2% D47 bubble binding to HAEC; D55 200 µM
[45] = biological target: binding target for TKPPR on HAEC (human aortic endothelial cells); experiment: competition of 1% D47 bubble binding to HAEC; TKPR 5 µM
[46] = biological target: binding target for TKPPR on HAEC (human aortic endothelial cells); experiment: competition of 1% D47 bubble binding to HAEC; TKPR 10 µM
[47] = biological target: binding target for TKPPR on HAEC (human aortic endothelial cells); experiment: competition of 1% D47 bubble binding to HAEC; TKPR 25 µM
[48] = biological target: binding target for TKPPR on HAEC (human aortic endothelial cells); experiment: competition of 1% D47 bubble binding to HAEC; TKPR 50 µM
[49] = biological target: binding target for TKPPR on HAEC (human aortic endothelial cells); experiment: competition of 1% D47 bubble binding to HAEC; TKPR 100 µM
[50] = biological target: binding target for TKPPR on HAEC (human aortic endothelial cells); experiment: beads perfused over HAEC in a parallel plate flow cell, 37 C
[51] = biological target: binding target for TKPPR on HAEC (human aortic endothelial cells); experiment: fluorescent beads on confluent HAEC, static 30 min, image analysis

TKPPR [TKPPR (L-threonyl-L-lysyl-L-prolyl-L-prolyl-L-arginine)]
IC50 (VEGF receptors on HUVECs): 250 µM
% inhibition of bubble binding [1]: 82.7%
% more bubbles bound with competitor [2]: 19%
Bubbles Bound in presence of competitor [3]: 790 bubbles
Bubbles Bound % in presence of competitor [4]: 16 % of control
Bubbles Bound in presence of competitor [5]: 528 bubbles
Bubbles Bound- D47 Formulation, in presence of competitor [5]: 535 bubbles
Bubbles Bound in presence of competitor [6]: 106 bubbles
Bubbles Bound- D47 Formulation, in presence of competitor [6]: 75 bubbles
Bubbles Bound in presence of competitor [7]: 56 bubbles
Bubbles Bound- D47 Formulation, in presence of competitor [7]: 9 bubbles
Bubbles Bound- D56 Formulation, in presence of competitor [8]: 833 bubbles
Bubbles Bound- D56 Formulation, in presence of competitor [9]: 718 bubbles
Bubbles Bound- D56 Formulation, in presence of competitor [10]: 462 bubbles
Bubbles Bound in presence of competitor [11]: 17 bubbles
Bubbles Bound- D47 Formulation, in presence of competitor [12]: 1240 bubbles
Bubbles Bound- D56 Formulation, in presence of competitor [13]: 888 bubbles
% Inhibition (average, n = 11) [14]: 30.8%
% Inhibition (average, n = 11) [15]: 50.7%
% Inhibition (average, n = 11) [16]: 50.5%
% Inhibition (average, n = 11) [17]: 62%
% Inhibition (average, n = 11) [18]: 72.2%
% Inhibition (average, n = 11) [19]: 70.6%
Bubbles Bound- 1%, in presence of competitor [20]: 10 bubbles
Bubbles Bound- 1%, in presence of competitor [21]: 5 bubbles
Bubbles Bound- 5%, in presence of competitor [22]: 1340 bubbles
Bubbles Bound- 5%, in presence of competitor [23]: 440 bubbles
Bubbles Bound- 1%, in presence of competitor [24]: 4 bubbles
Bubbles Bound- 1%, in presence of competitor [25]: 4 bubbles
Bubbles Bound- 10%, in presence of competitor [26]: 1090 bubbles
Bubbles Bound- 10%, in presence of competitor [27]: 857 bubbles
Bubbles Bound- 5%, in presence of competitor [28]: 12 bubbles
Bubbles Bound- 5%, in presence of competitor [29]: 13 bubbles
Bubbles Bound- 10%, in presence of competitor [30]: 399 bubbles
Bubbles Bound- 10%, in presence of competitor [31]: 66 bubbles
Average % Inhibition [32]: 45.7%
Average % Inhibition [33]: 79.6%
Average % Inhibition [34]: 82%
Average % Inhibition [35]: 92.7%
Average % Inhibition [36]: 93.7%
HAEC bubbles bound in presence of competitor [37]: 58 bubbles
RAEC bubbles bound in presence of competitor [38]: 21 bubbles

CTKPPRC [linear CTKPPRC (D54)]
Bubbles Bound % in presence of competitor [39]: 97 % of control
Bubbles Bound % in presence of competitor [40]: 78 % of control
Bubbles Bound % in presence of competitor [41]: 88 % of control

CTKPPRC (disulfide 1-7 (inferred)) [cyclic disulfide CTKPPRC (D55)]
Bubbles Bound % in presence of competitor [42]: 97 % of control
Bubbles Bound % in presence of competitor [43]: 71 % of control
Bubbles Bound % in presence of competitor [44]: 99 % of control

TKPR [Tuftsin (TKPR)]
Bubbles Bound in presence of competitor [45]: 1150 bubbles
Bubbles Bound in presence of competitor [46]: 976 bubbles
Bubbles Bound in presence of competitor [47]: 1170 bubbles
Bubbles Bound in presence of competitor [48]: 904 bubbles
Bubbles Bound in presence of competitor [49]: 556 bubbles

B1: TKPPR tetramer D41, OG-(TKPPR)4 (peptide)
peptide: [AEEA]TKPPR
modifications: also: tetramer of four TKPPR on a branched non-peptide scaffold, one Oregon Green label on scaffold
IC50 (VEGF receptors on HUVECs): 10 µM

B2: TKPPR-conjugated red fluorescent microspheres (peptide)
peptide: TKPPR
modifications: also: amino group coupled by EDAC to carboxylate-modified FluoSpheres, which amino group not given here
Bound at 1.53 dynes/cm^2 [50]: 86 beads
Integrated density of bound beads (arbitrary units) [51]: 230

GRGDSP (also: coupled by EDAC to carboxylate-modified FluoSpheres, site not given here) [GRGDSP-conjugated fluorescent microspheres]
Integrated density of bound beads (arbitrary units) [51]: 28.6
